Source: patent US20090214603A1 (UNIVERSITY OF LOUISVILLE RESEARCH FOUNDATION, published 2009)

Tests used:
Assay in all cases: cell-based or functional assay
[1] = molecular target: minor fimbrial antigen Mfa1 of Porphyromonas gingivalis, on intact P. gingivalis ATCC 33277 cells (Porphyromonas gingivalis) (UniProt B2RHG1)
[2] = molecular target: recombinant Mfa1 protein (rMfa1), full-length Mfa1 of P. gingivalis 33277 with a C-terminal penta-histidine tag (Porphyromonas gingivalis) (UniProt B2RHG1)
[3] = molecular target: T1, minor fimbrial antigen Mfa1 of Porphyromonas gingivalis, on intact P. gingivalis ATCC 33277 cells (Porphyromonas gingivalis, UniProt B2RHG1 50-563)
T1 sequence: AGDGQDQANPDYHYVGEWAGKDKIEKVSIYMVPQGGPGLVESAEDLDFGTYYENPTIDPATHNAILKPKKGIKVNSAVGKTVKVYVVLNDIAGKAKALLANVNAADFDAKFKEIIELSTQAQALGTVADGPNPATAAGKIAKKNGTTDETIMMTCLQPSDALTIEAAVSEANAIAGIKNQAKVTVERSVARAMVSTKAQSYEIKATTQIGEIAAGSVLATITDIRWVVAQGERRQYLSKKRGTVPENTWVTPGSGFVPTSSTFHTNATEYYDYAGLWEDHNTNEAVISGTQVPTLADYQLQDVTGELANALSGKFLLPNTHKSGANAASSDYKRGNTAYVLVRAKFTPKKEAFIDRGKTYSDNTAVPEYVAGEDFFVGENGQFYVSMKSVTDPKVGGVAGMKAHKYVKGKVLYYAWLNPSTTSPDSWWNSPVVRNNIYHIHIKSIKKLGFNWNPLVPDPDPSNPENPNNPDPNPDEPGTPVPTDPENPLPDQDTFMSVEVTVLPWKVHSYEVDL

Sequence of recombinant Mfa1 protein (rMfa1), full-length Mfa1 of P. gingivalis 33277 with a C-terminal penta-histidine tag (Porphyromonas gingivalis) (B2RHG1 20-563, tags left off): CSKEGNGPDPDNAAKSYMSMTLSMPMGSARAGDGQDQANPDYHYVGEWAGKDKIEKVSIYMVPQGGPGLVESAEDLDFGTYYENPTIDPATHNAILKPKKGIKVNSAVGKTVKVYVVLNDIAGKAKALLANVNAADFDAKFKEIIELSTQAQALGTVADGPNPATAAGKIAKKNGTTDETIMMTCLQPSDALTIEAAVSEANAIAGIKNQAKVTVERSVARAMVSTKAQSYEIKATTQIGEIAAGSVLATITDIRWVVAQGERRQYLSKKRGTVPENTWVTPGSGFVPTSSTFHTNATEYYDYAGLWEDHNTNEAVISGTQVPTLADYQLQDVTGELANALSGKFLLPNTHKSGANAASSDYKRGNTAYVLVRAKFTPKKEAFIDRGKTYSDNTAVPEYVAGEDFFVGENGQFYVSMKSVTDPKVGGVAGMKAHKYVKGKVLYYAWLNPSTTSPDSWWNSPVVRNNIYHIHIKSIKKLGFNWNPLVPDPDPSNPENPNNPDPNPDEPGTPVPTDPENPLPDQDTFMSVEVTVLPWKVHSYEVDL

BAR-XI, BAR analog in which the positively charged Lys residues flanking VXXLL were altered to Asp (peptide)
inhibition of biofilm formation [1]: 40%

BAR-III, cyclic conformationally constrained disulfide bridged BAR peptide with Cys substituted for Leu1177 and Leu1191
specific activity of biofilm inhibition against BAR (fold less than BAR) [1]: 13

BAR-II, derivative of the BAR peptide containing the Arg/Asn1182 and Ile/Val1185 substitutions
I50 of inhibition of P. gingivalis adherence and biofilm formation [1]: 0.52 µM | fold difference of I50 against BAR [1]: 2.5 fold | inhibition of adherence and formation of P. gingivalis microcolonies on the streptococcal substrate at 0.34 µM peptide [1]: 25% | inhibition of adherence and formation of P. gingivalis microcolonies on the streptococcal substrate at 0.85 µM peptide [1]: 82%

BAR peptide (SspB Adherence Region), synthetic peptide comprising residues 1167 to 1193 of the SspB (antigen I/II) protein of S. gordonii
relative density (R.D.) of remaining BAR peptide after 5 minutes with P. gingivalis SMF1 and rMfa1 (relative density) [2]: 47.3 | relative density (R.D.) of remaining BAR peptide after 30 minutes with P. gingivalis SMF1 and rMfa1 (relative density) [2]: 8.2

BAR-X, BAR analog in which the internal variable residues in VXXLL were altered to Pro and Gly (VPGLL) (peptide)
inhibition of biofilm formation at 3.38 µM peptide [1]: 15%

B1: BAR peptide (SspB Adherence Region), synthetic peptide comprising residues 1167 to 1193 of the SspB (antigen I/II) protein of S. gordonii (peptide)
peptide: LEAAPKKVQDLLKKANITVKGAFQLFS
% inhibition of microcolony formation relative to 0 µM, 0.169 µM BAR, with pepstatin A [3]: 19.9% | % inhibition of microcolony formation relative to 0 µM, 0.169 µM BAR, without pepstatin A [3]: 4.99% | % inhibition of microcolony formation relative to 0 µM, 0.338 µM BAR, with pepstatin A [3]: 44.6% | % inhibition of microcolony formation relative to 0 µM, 0.338 µM BAR, without pepstatin A [3]: 18.6% | % inhibition of microcolony formation relative to 0 µM, 0.845 µM BAR, with pepstatin A [3]: 67.7% | % inhibition of microcolony formation relative to 0 µM, 0.845 µM BAR, without pepstatin A [3]: 42.5% | % inhibition of microcolony formation relative to 0 µM, 1.65 µM BAR, with pepstatin A [3]: 97.8% | % inhibition of microcolony formation relative to 0 µM, 1.65 µM BAR, without pepstatin A [3]: 93.4%
